Laboratory results as given in patent US20110250284A1, “Nanoparticles for Use as Synthetic Platelets and Therapeutic Agent Delivery Vehicles” (priority 2008, published 2011).

Test system: NSCs
Assay: NSC behavior cultured near hydrogels with CNTF delivery component
Type: cell-based
Details: seven days
Experimental: NSCs were positive for green fluorescent protein (GFP) and were maintained in high glucose DMEM/F12 (1:1) supplemented with 20 ng/mL mouse epidermal growth factor (EGF), N-2, B-27, penicillin/streptomycin, and L-glutamine.
To test the response of NSCs cultured near but not directly on or within hydrogels with a CNTF delivery component, NSCs were seeded as neurospheres in chamber slides at a concentration of 5×10^5 cells/mL. A hydrogel containing acrylated nanoparticles encapsulating an estimated 10 ng of CNTF was added to the culture medium. In other experiments a hydrogel containing either blank (BSA-only) nanoparticles, no nanoparticles, or unencapsulated CNTF at 10 ng/mL was added, and no hydrogel was added in the negative control. Throughout the seven days of the experiment, the migration of NSCs out of the neurospheres was measured using the fluorescence of the GFP NSCs. At the end of seven days, all hydrogels were removed. Cells were fixed for analysis in 10% formalin for 1 hour and rinsed in 1× PBS. Differentiation was quantified by immunocytochemistry as described below.
Samples were blocked (3% normal goat serum, 5% BSA, 0.3% TritonX-100) for 1 hour, then rinsed and incubated with primary antibodies against mouse β-III-tubulin (B3T; Promega; 1:1000), mouse nestin (BD Biosciences; 1:200), rabbit glial fibrillary acidic protein (GFAP; Sigma; 1:160), rabbit oligodendrocyte transcription factor 1 (Olig1; Chemicon; 1:200), or caspase-3 (Sigma, 1:10) for 2 hours. They were then rinsed and incubated with species-specific Alexa Fluor 647 secondary antibodies (Molecular Probes; 1:200) for 1 hour, and rinsed again. Cells in chamber slides were also stained with DAPI (1:35000) for 5 minutes, rinsed again, and stored in 1× PBS at 4° C. […]
The slides were viewed using a Zeiss Axiovert 200 microscope with a Zeiss Mrc camera, and images were captured through Axiovert 4.0 software. Expression of each marker was quantified by the ratio of the area of fluorescence for each marker to the area of fluorescence for the GFP labeling. Results are expressed as mean±coefficient of variation.

B1: CNTF: Recombinant human ciliary neurotrophic factor with BSA carrier (R&D Systems) (protein, UniProt P26441 1-200, looked up)
Ciliary neurotrophic factor: MAFTEHSPLTPHRRDLCSRSIWLARKIRSDLTALTESYVKHQGLNKNINLDSADGMPVASTDQWSELTEAERLQENLQAYRTFHVLLARLLEDQQVHFTPTEGDFHQAIHTLLLQVAAFAYQIEELMILLEYKIPRNEADGMPINVGDGGLFEKKLWGLKVLQELSQWTVRSIHDLRFISSHQTGIPARGSHYIANNKKM
modifications: BSA carrier
Which results are given for B1?
migration of NSCs out of neurospheres (hydrogel added to culture medium): increased migration; GFAP expression (immunocytochemistry): upregulation of GFAP; nestin expression (immunocytochemistry): downregulation of nestin
